Experimental data as given in PMC4499774.

Target: GST-MED4 CsoS2 (pFC005) (Prochlorococcus marinus str. MED4)
Test: pull-down; E. coli co-expressing GST-MED4 CsoS2 (pFC005) with CsoS1 and CsoS1D (pFC119); Glutathione-Sepharose magnetic beads; elution by SDS-PAGE, densitometry and Western blot

Sequence of GST-MED4 CsoS2 (pFC005) (Prochlorococcus marinus str. MED4) (Q7V2C8 whole entry): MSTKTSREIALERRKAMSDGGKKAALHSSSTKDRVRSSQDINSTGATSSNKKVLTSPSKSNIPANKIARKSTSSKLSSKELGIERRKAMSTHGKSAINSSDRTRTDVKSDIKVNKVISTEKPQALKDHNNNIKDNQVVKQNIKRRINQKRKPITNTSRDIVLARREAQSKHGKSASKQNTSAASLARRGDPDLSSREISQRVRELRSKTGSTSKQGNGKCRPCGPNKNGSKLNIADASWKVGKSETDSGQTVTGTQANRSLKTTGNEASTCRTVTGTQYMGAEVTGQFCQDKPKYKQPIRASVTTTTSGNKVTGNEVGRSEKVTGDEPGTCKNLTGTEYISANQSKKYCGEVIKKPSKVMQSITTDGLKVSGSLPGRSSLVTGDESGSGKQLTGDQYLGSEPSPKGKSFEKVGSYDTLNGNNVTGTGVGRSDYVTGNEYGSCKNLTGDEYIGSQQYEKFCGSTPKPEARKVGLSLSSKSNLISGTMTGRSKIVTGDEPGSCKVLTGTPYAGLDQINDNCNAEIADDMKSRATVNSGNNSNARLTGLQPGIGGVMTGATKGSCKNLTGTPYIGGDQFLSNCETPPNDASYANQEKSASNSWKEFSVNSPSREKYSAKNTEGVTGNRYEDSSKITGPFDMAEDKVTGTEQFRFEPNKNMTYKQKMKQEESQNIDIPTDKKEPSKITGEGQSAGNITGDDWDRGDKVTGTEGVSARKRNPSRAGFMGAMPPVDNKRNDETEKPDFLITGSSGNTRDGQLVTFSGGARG

molar ratio of CsoS1D to GST-CsoS2 in the elution fraction (densitometry): 5 molar ratio
B1: MED4 CsoS1D co-expressed with GST-MED4 CsoS2 (pFC119) (natural protein)
chain: MEPTSSLNRGDRKKGSSLVTGSEVQSQSNGASCFITTDSEKSLVSRQASQVEQIELRTYVFLDSLQPQLAAYMGTVSRGFLPIPGDSCLWMEVSPGMAVHRVTDIALKASNVRLGQMIVERAFGSLALYHKDQSTVLHSGDVVLDAIGSEVRKRTKPSTSWTEVICAITPDHAVLINRQNRSGSMIQSGMSMFILETEPAGYVLKAANEAEKSANITIIDVKAVGAFGRLTLAGKEGDVEEAAAAAIRAIDQISNY
